Reference: the RNAGym collection of RNA variant scans (doi:10.7554/elife.80360)

B1: Twister Ribozyme (parent)
chain: AACACUGCCAAUGCCGGUCCCAAGCCCGGAUAAAAGUGGAGGGGGCGG

Variants of: B1
Experiment: self-cleavage, relative activity (ratio to wild type); higher = more cleavage; co-transcriptional

Row | Variant | self-cleavage
1 | AACACUGCCAAUGCCGGUCCCAAGCCCGGAAAAAAGUGGAGGGGGAGG | 0.816
2 | AACACUGCCAAUGCCGGUCCCAAGCCCGGUUAAAAGUUGAGGGGGCGG | 0.957
3 | AACACUGCCAAUGCCGGUCCCAAGCCCGGUUAAAAGUCGAGGGGGCGG | 0.88
4 | AACACUGCCAAUGCCGGUCCCAAGCCCGGAAACAAGUGGAGGGGGCGG | 0.833
5 | AACACUGCCAAUGCCGGUCCCAAGCCCGGUUAAAAGUGGAGGGGGCCG | 0.669
6 | AACACUGCCAAUGCCGGUCCCAAGCCCGGGUAAAAGUGGAGGGGGCCG | 0.534
7 | AACACUGCCAAUGCCGGUCCCAAGCCCGGUUAAAAGUGGAGGGGGCGG | 0.984
8 | AACACUGCCAAUGCCGGUCCCAAGCCCGGAAAAAAGUGGCGGGGGCGG | 0.207
9 | AACACUGCCAAUGCCGGUCCCAAGCCCGGAAAAAAGUGGAGGGGGCUG | 0.621
10 | AACACUGCCAAUGCCGGUCCCAAGCCCGGAAAAAAGUGGAGGGGGCCG | 0.391
11 | AACACUGCCAAUGCCGGUCCCAAGCCCGGAAAAAAGUGGAGGGGGCAG | 0.628
12 | AACACUGCCAAUGCCGGUCCCAAGCCCGGAGAACAGUGGAGGGGGCGG | 0.477
13 | AACACUGCCAAUGCCGGUCCCAAGCCCGGGCAAAAGUGGAGGGGGCGG | 0.988
14 | AACACUGCCAAUGCCGGUCCCAAGCCCGGAGAAAAGUGGAGGGGGAGG | 1.1
15 | AACACUGCCAAUGCCGGUCCCAAGCCCGGUUAAAAGCGGAGGGGGCGG | 0.72
16 | AACACUGCCAAUGCCGGUCCCAAGCCCGGUUAAAAGAGGAGGGGGCGG | 0.742
17 | AACACUGCCAAUGCCGGUCCCAAGCCCGGAAAAAAGUGGACGGGGCGG | 0.266
18 | AACACUGCCAAUGCCGGUCCCAAGCCCGGAAAAAAGUGGAAGGGGCGG | 0.452
19 | AACACUGCCAAUGCCGGUCCCAAGCCCGGGUAAAAGUGGAGGGGGCGA | 0.958
20 | AACACUGCCAAUGCCGGUCCCAAGCCCGGACAAAAGUGGAGGGGUCGG | 0.871
21 | AACACUGCCAAUGCCGGUCCCAAGCCCGGACAAAAGUGGAGGGGCCGG | 0.593
22 | AACACUGCCAAUGCCGGUCCCAAGCCCGGAAAAAAGUGAAGGGGGCGG | 0.343
23 | AACACUGCCAAUGCCGGUCCCAAGCCCGGAAAAAAGUGCAGGGGGCGG | 0.151
24 | AACACUGCCAAUGCCGGUCCCAAGCCCGGUUAAAAGUGGAGGGGGCGC | 1.07
25 | AACACUGCCAAUGCCGGUCCCAAGCCCGGAAAAAAAUGGAGGGGGCGG | 0.614
26 | AACACUGCCAAUGCCGGUCCCAAGCCCGGAAAAAAUUGGAGGGGGCGG | 0.292
27 | AACACUGCCAAUGCCGGUCCCAAGCCCGGAAAAAACUGGAGGGGGCGG | 0.388

Row | Variant | self-cleavage
28 | AACACUGCCAAUGCCGGUCCCAAGCCCGGACAAAAGUGGAGGUGGCGG | 0.537
29 | AACACUGCCAAUGCCGGUCCCAAGCCCGGUUAUAAGUGGAGGGGGCGG | 0.873
30 | AACACUGCCAAUGCCGGUCCCAAGCCCGGUUAGAAGUGGAGGGGGCGG | 1.03
31 | AACACUGCCAAUGCCGGUCCCAAGCCCGGAAAAAAGUGGAGGGGGCGA | 0.717
32 | AACACUGCCAAUGCCGGUCCCAAGCCCGGAAAAAAGUGGAGGGGGCGU | 0.881
33 | AACACUGCCAAUGCCGGUCCCAAGCCCGGAAAAAAGUGGAGGGGGCGC | 1.19
34 | AACACUGCCAAUGCCGGUCCCAAGCCCGGACAAAAGUUGAGGGGGCGG | 0.904
35 | AACACUGCCAAUGCCGGUCCCAAGCCCGGACAAAAGUAGAGGGGGCGG | 0.81
36 | AACACUGCCAAUGCCGGUCCCAAGCCCGGGUAAAAGUGUAGGGGGCGG | 0.191
37 | AACACUGCCAAUGCCGGUCCCAAGCCCGGGUAAAAGUGCAGGGGGCGG | 0.159
38 | AACACUGCCAAUGCCGGUCCCAAGCCCGGGUAAAAGUGAAGGGGGCGG | 0.582
39 | AACACUGCCAAUGCCGGUCCCAAGCCCGGACAACAGUGGAGGGGGCGG | 0.196
40 | AACACUGCCAAUGCCGGUCCCAAGCCCGGACAAUAGUGGAGGGGGCGG | 0.739
41 | AACACUGCCAAUGCCGGUCCCAAGCCCGGACAAAAAUGGAGGGGGCGG | 0.725
42 | AACACUGCCAAUGCCGGUCCCAAGCCCGGACAAAAGUGGAGGGUGCGG | 1.01
43 | AACACUGCCAAUGCCGGUCCCAAGCCCGGGUAAAAGGGGAGGGGGCGG | 0.92
44 | AACACUGCCAAUGCCGGUCCCAAGCCCGGGUAAAAGUGGAGGGAGCGG | 0.85
45 | AACACUGCCAAUGCCGGUCCCAAGCCCGGGUAAAAGUGGAGGGGGAGG | 0.763
46 | AACACUGCCAAUGCCGGUCCCAAGCCCGGAAAAAAGUGGAGGGAGCGG | 0.689
47 | AACACUGCCAAUGCCGGUCCCAAGCCCGGAAAAAAGUGGAGGGUGCGG | 0.83
48 | AACACUGCCAAUGCCGGUCCCAAGCCCGGUUAAAAGUGGAGGGGGUGG | 0.968
49 | AACACUGCCAAUGCCGGUCCCAAGCCCGGGUAAAAAUGGAGGGGGCGG | 0.761
50 | AACACUGCCAAUGCCGGUCCCAAGCCCGGGUAAAACUGGAGGGGGCGG | 0.422
51 | AACACUGCCAAUGCCGGUCCCAAGCCCGGUUAACAGUGGAGGGGGCGG | 0.17
52 | AACACUGCCAAUGCCGGUCCCAAGCCCGGACAAAAGUGUAGGGGGCGG | 0.19
53 | AACACUGCCAAUGCCGGUCCCAAGCCCGGGUAAAAGUGGAUGGGGCGG | 0.772
54 | AACACUGCCAAUGCCGGUCCCAAGCCCGGGUAAAAGUGGAAGGGGCGG | 0.666
